We go through one molecule from publication PMC4070737.

The target in this assay is T1, full-length human EB1 (human), Q15691.
T1 chain: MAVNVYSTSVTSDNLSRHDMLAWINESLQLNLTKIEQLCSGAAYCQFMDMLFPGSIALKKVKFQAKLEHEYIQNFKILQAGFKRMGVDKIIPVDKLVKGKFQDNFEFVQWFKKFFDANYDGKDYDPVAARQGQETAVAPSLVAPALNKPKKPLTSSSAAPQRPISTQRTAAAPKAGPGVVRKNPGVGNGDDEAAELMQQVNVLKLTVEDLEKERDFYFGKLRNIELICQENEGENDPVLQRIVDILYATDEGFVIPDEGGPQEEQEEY
As to the kind of experiment: AUC. As to conditions: remark: other sources report otherwise.

The term Kd denotes the concentration at which binding is half-saturated. A high value points to lower affinity. The term stoichiometry N denotes a count of units in the complex or per binding partner.

B1: full-length human EB1, Q15691 1-268 (natural protein)
chain: MAVNVYSTSVTSDNLSRHDMLAWINESLQLNLTKIEQLCSGAAYCQFMDMLFPGSIALKKVKFQAKLEHEYIQNFKILQAGFKRMGVDKIIPVDKLVKGKFQDNFEFVQWFKKFFDANYDGKDYDPVAARQGQETAVAPSLVAPALNKPKKPLTSSSAAPQRPISTQRTAAAPKAGPGVVRKNPGVGNGDDEAAELMQQVNVLKLTVEDLEKERDFYFGKLRNIELICQENEGENDPVLQRIVDILYATDEGFVIPDEGGPQEEQEEY
In turn, B1 had a dissociation constant (Kd) of 88.5 nM and a stoichiometry N of 2.
